Results on 8 molecules are retold here after US20110318339A1 (FABRUS, published 2011).

Changes are numbered by the printed parent chain. In names and notes the source's numbering stands.

Test [1] has as its target T1, recombinant human DLL4 (Cat# 1506-D4/CF, R&D Systems) (human, UniProt Q9NR61 27-529).
T1 construct: Bought protein; also called hDLL4; rHuman DLL4
The experiment in a line: ELISA, DLL4 coated, Fab 2.22 nM. How it is done: (§1) The plate was blocked by adding 1% BSA in Tris-buffered Saline Tween (TBST) and incubating for 1 hour at room temperature followed by washing 2 times with 150 μl TBST. A Fab antibody was serially diluted in 1% BSA in PBS. A 50 μl aliquot of each serial dilution was added, in triplicate, to each well and the plate was incubated for 1 hour at room temperature followed by washing 2 times with TBST. 50 μl of either goat anti-human kappa HRP conjugated secondary antibody (Cat # A7164-1 mL, Sigma-Aldrich) or goat anti-human lambda HRP conjugated secondary antibody (Cat # L1645-1 ml, Sigma-Aldrich), diluted 1:1000 in 1% BSA in PBS, was added to each well and the plate was incubated for 30 minutes at room temperature followed by washing 3 times with 200 μl TBST. Finally, 50 μl TMB one-component reagent (Cat # TMBW-1000-01, BioFax) was added and allowed to develop for 2 minutes at room temperature. The reaction was immediately halted by the addition of 50 μl 0.5M H₂SO₄ and the absorbance at 450 nm was measured using an ELISA plate reader.

The target of test [2] is T1, recombinant human DLL4 (Cat# …). In words: ELISA, DLL4 coated, Fab 20 nM. Here is the method:
as §1
For orientation: ELISA stands for enzyme-linked immunosorbent assay.

Test [3] shares this target. The experiment in a line: ELISA, DLL4 coated, Fab 100 nM. Here is the method:
(§2) In this example, an ELISA binding assay was used to assess the dose-dependent binding of Fab antibodies to recombinant human DLL4 and recombinant mouse DLL4.
as §1

The target is the same in test [4]. In words: ELISA, DLL4 coated, Fab 25 nM. Here is the method: as §1
For test [5] the target is unchanged. In words: ELISA, DLL4 coated, Fab 6.67 nM. Here is the method: as §1
For test [6] the target is unchanged. In words: ELISA, DLL4 coated, Fab 12.5 nM. Here is the method:
as §2, §1

For test [7] the target is unchanged. In words: ELISA, DLL4 coated, Fab 50 nM. How it is done: as §2, §1
Test [8] has the same target. In words: ELISA, DLL4 coated, Fab 0.74 nM. How it is done:
as §1

The target is the same in test [9]. The experiment in a line: SPR (ProteOn), hDLL4 amine-coupled on chip. How it is done:
In this example, the binding affinities of selected anti-DLL4 Fabs to recombinant human DLL4 (hDLL4, Cat# 1506-D4/CF, R&D Systems) were analyzed using Surface Plasmon Resonance (SPR) (Biosensor Tools, Salt Lake City, Utah). The Fabs analyzed include germline-derived antibodies and germline-modified DLL4 antibodies. Recombinant hDLL4 was immobilized on a SPR chip using amine coupling at three different surface densities. The Fabs were serially diluted 3-fold, with an initial concentration of 1 μM. Binding studies were run on a ProteOn system using a GLM sensor chip in 10 mM HEPES, pH 7.4, 150 mM NaCl, 0.01% Tween-20, and 0.1 mg/ml BSA at 25° C. The response data from each surface was globally fit to determine the binding constants.

The target in test [10] is T2, Recombinant Human DLL4 (Cat# 1506-D4/CF, R&D Systems) (human, UniProt Q9NR61 27-529).
T2 construct: Bought protein; also called rHuman DLL4; hDLL4
The experiment in a line: ELISA, DLL4 coated.

The target in test [11] is T1, recombinant human DLL4 (Cat# …). In words: ELISA, DLL4 coated, Fab 0.63 nM. Here is the method:
as §1

Test [12] shares this target. In words: ELISA, DLL4 coated, Fab 10 nM. Here is the method:
as §1

The target is the same in test [13]. The experiment in a line: ELISA, DLL4 coated, Fab 0.16 nM. Here is the method:
as §1

For test [14] the target is unchanged. In words: ELISA, DLL4 coated, Fab 1.3 nM. How it is done:
as §1

Test [15] shares this target. The experiment in a line: ELISA, DLL4 coated, Fab 2.5 nM. Here is the method:
as §1

Test [16] has the same target. In words: ELISA, DLL4 coated, Fab 0.31 nM. Here is the method: as §1
Test [17] has the same target. The experiment in a line: ELISA, DLL4 coated, Fab 5 nM. How it is done: as §1
Test [18] concerns the target T2, Recombinant Human DLL4 (Cat# …). The experiment in a line: ELISA, DLL4 coated, estimated from dose-dependent binding. How it is done: as §1

B1: Fab VH5-51_IGHD5-18*01>3_IGHJ4*01 G100K/G104T & V3-4_IGLJ1*01 (Fab, V domains shown)
VH: EVQLVQSGAEVKKPGESLKISCKGSGYSFTSYWIGWVRQMPGKGLEWMGIIYPGDSDTRYSPSFQGQVTISADKSISTAYLQWSSLKASDTAMYYCARRKYSYTYDYFDYWGQGTLVTVSS
VL: QTVVTQEPSFSVSPGGTVTLTCGLSSGSVSTSYYPSWYQQTPGQAPRTLIYSTNTRSSGVPDRFSGSILGNKAALTITGAQADDESDYYCVLYMGSGISYVFGTGTKVTVL
notes: Fab made in E. coli: VH on CH1 with His6 and Flag tags (Plasmid A), VL on lambda CL (Plasmid E); also called H: KT & L: wt
As to B1, the “ELISA absorbance at 450 nm” value in [1] was 0.014 A450; in [2], 0.018 A450; in [3], 0.18 A450; in [4], 0.16 A450; in test [5], 0.042 A450; in test [6] it was 0.18 A450. For the same molecule, the “ELISA absorbance at 450 nm” value stood at 0.18 A450 in test [7] and 0.019 A450 in test [8].

B2: Fab VH5-51_IGHD5-18*01>3_IGHJ4*01 G100K/G104T S28R & V3-4_IGLJ1*01 (Fab, V domains shown)
VH: B1 VH with S28R
VL: B1 VL
notes: Fab made in E. coli: VH on CH1 with His6 and Flag tags (Plasmid A), VL on lambda CL (Plasmid E); also called H: KT S28R & L: wt
In general, Kd refers to the equilibrium constant for the complex coming apart. As a reminder, the koff is the first-order rate constant of dissociation. Broadly, the kon is the second-order rate constant of association. On to B2, for which the Kd in test [9] is 0.114 µM. In test [9], the koff was 0.0845 s⁻¹. In test [9], the kon is 740000 M⁻¹ s⁻¹. Moreover, the “ELISA absorbance at 450 nm” value was found to be 0 A450 in [1]; 0.009 A450 in test [2]; 0.26 A450 in [3]; 0.2 A450 in test [4]; 0.003 A450 in test [5]; 0.18 A450 in test [6]. Further, the “ELISA absorbance at 450 nm” value in test [7] is 0.23 A450; in test [8], 0 A450.

B3: Fab H:APFF & L:NDH (Fab, V domains shown)
VH: QVQLVQSGAEVKKPGASVKVSCKASGYTFTSYYMHWVRQAPGQGLEWMGIINPSGGSTSYAQKFQGRVTMTRDTSTSTVYMELSSLRSEDTAVYYCAREEYAPFSAEYFQFWGQGTLVTVSS
VL: EIVLTQSPATLSLSPGERATLSCRASQNVDHYLAWYQQKPGQAPRLLIYDASNRATGIPARFSGSGSGTDFTLTISSLEPEDFAVYYCQQRSNWPPWTFGQGTKVEIKR
notes: Fab, kappa light chain; also called VH1-46_IGHD6-6*01_IGHJ1*01 S102A/S103P/S104F/H111F & L6_IGKJ1*01 S28N/S30D/S31H
For the molecule B3, in test [10], the “fold increased affinity against Fab mutant APFF (H:APFF & L:wt)” value amounted to 4 fold.

B4: Fab H:APFF VLTH & L:NDH LG (Fab, V domains shown)
VH: B3 VH with I51V, N52L, S54T, G56H
VL: B3 VL with S52L, A55G
notes: Fab, kappa light chain
As to B4, the “fold increased binding affinity against the antibody mutants with heavy chain H:APFF ALTH” value in [10] is about 10 fold.

B5: Fab H:APFF LTH & L:NDH LS (Fab, V domains shown)
VH: B3 VH with N52L, S54T, G56H
VL: B3 VL with S52L, A55S
notes: Fab, kappa light chain
As for B5, the “fold increased binding affinity against the antibody mutants with heavy chain H:APFF ALTH” value in test [10] is about 10 fold.

B6: Fab VH1-46_IGHD6-6*01_IGHJ1*01 S102A/S103P/S104F/H111F I51N/N52L/S54T/G56H & L6_IGKJ1*01 (Fab, V domains shown)
VH: B3 VH with I51N, N52L, S54T, G56H
VL: not shown
notes: Fab made in E. coli: VH on CH1 with His6 and Flag tags (Plasmid A), VL on kappa CL (Plasmid C); also called H: APFF NLTH & L: wt
Turning to B6, the “ELISA absorbance at 450 nm” value was 0.419 A450 in test [11]; 1.36 A450 in test [12]; 1.63 A450 in test [2]; 1.36 A450 in test [13]; 0.143 A450 in test [14]; 1.17 A450 in test [15]. Besides, the results for the “ELISA absorbance at 450 nm” value in test [16] and in [17] were 1.63 A450 and 1.75 A450, respectively.

B7: Fab H:APFF VLTH & L6_IGKJ1*01 (Fab, V domains shown)
VH: B3 VH with I51V, N52L, S54T, G56H
VL: not shown
notes: Fab, kappa light chain; also called H:APPF VLTH; H:APFF VLTH & L:wt
Regarding B7, the equilibrium dissociation constant (Kd) in test [18] was 0.001 to 0.01 µM.

B8: Fab H:APFF TLATH & L6_IGKJ1*01 (Fab, V domains shown)
VH: B3 VH with I51T, N52L, P53A, S54T, G56H
VL: not shown
notes: Fab, kappa light chain; also called H:APFF TLATH & L:wt
As for B8, the Kd in test [18] is over 0.1 µM.
